Results from patent US20140072563A1 (Regeneron, published 2014).
Where a chain is given by its changes, count along the chain named. Numbers in names are those of the source.

T1: ErbB3-mFc (human)
T1 construct: Dimeric soluble ErbB3; also called hErbB3.mFc
T1 chain: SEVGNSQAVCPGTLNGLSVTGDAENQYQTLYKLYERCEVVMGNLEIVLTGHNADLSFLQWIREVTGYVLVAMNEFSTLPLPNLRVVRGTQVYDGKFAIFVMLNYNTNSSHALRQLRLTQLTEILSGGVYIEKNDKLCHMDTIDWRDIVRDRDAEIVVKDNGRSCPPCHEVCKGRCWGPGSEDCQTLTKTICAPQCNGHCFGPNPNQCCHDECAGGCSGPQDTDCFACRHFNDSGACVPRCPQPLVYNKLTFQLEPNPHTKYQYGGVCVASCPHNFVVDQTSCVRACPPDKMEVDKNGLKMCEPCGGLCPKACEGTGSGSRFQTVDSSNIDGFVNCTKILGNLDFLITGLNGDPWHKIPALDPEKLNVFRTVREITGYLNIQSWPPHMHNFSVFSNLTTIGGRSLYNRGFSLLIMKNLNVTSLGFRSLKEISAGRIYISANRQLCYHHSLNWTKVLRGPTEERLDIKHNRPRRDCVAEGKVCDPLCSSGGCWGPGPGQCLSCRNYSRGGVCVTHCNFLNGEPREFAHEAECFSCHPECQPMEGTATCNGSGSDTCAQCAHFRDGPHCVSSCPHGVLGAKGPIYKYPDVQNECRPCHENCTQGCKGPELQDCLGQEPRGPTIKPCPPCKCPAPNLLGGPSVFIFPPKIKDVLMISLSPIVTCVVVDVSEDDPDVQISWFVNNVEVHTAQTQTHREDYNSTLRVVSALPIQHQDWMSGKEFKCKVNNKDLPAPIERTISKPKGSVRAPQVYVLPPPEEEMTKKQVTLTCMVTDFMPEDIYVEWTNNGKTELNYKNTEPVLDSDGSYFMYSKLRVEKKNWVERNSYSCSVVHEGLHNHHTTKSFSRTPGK

B1: H4H2138P (antibody, human IgG4, V domains shown)
VH: QVQLQESGPGLVKPSQTLSLTCTVSGGSINSGGYYWSWIRQHPGKGLEWIGYISYSGNTNYNPSLKSRVTISVDTSKNQFSLTLTSVTAADTAVYYCARDSDVDTGLVDGFDVWGQGTMVTVSS
VL: DIVMTQSPSSVSASVGDRVTITCRASQGVSSWLAWYQQKPGKAPKLLIYTTSSLQSGVPSRFSGSGSGTDFTLTISSLQPEDFATYYCQQSNSFPFTFGPGTKVEIK
notes: Human IgG4 Fc (prefix H4H)
B2: H4H2132P (antibody, human IgG4, V domains shown)
VH: EVQLVESGGGVVRPGGSLRLSCAASGFTFDDYGMSWVRQFPGKGLEWVSSIDGNGGNTGYSDSVKGRFTISRDNAKNSLHLQMNSLRAEDTALYHCARDPDYDSVWGNYRPFDYWGQGTLVTVSS
VL: DIVMTQSPDSLAVSLGERATINCKSSQSVLSSSNDNNYLAWFQQKPGQPPNLLIYWASTRDSGVPDRFSASGSGTDFTLAISSLQAEDVAVYYCHQYYSSPPTFGQGTKVEIKR
notes: Human IgG4 Fc (prefix H4H)
B3: H4H2146P (antibody, human IgG4, V domains shown)
VH: QVQLVESGGGVVQPGRSLRLSCAASGFTFINYGIHWVRQGPGKGLEWVAVIWYDGSNEWYADSVKGRFTISRDNSKNTVYLEMNKLRAEDTAVYYCAREEEDYGMDVWGQGTTVTVSS
VL: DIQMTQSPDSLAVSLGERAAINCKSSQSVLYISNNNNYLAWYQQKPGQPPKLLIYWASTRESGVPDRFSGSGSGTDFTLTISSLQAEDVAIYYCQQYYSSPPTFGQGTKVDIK
notes: Human IgG4 Fc (prefix H4H)
B4: H4H2140P (antibody, human IgG4, V domains shown)
VH: EVQLVESGGGLVQPGGSLRLSCAASGFSVSYYDMHWVRQVTGKGLEWVSAIGPAGDTYYPGSVKGRFTISREDATNSLYLQIHSLGAGDTAVYYCAREGAIAARPDDYYGMDVWGQGTTVTVSS
VL: DIQLTQSPSFLSASVGDRVTITCWASQDISSYLAWYQQKPGKAPKLLIYAASTLQSGVPSRFSGSGSGTEFTLTISSLQPEDFATYYCQQLNSYPLTFGGGTKVEIKR
notes: Human IgG4 Fc (prefix H4H)
B5: H4H2143P (antibody, human IgG4, V domains shown)
VH: EVQLVESGGGLVQPGRSLRLSCAASGFTFGDYAMHWVRQAPGKGLEWVSGINLNSGTIGYADSVKGRFTISRDNAKNSLYLQMNSLRAEDTAFYYCAKDIDGYYHYAMDVWGQGTTVTVSS
VL: B4 VL with I2V, Q3V, L4M, D28G, A50D, Q55E, S77N, L91V
notes: Human IgG4 Fc (prefix H4H)
B6: H4H2147P (antibody, human IgG4, V domains shown)
VH: QVQLVESGGGLVKPGGSLRLSCAASGFTFSDFNMGWIRQAPGKGLEWVSHISGSGNVIYYADSVKGRFAISRDNGKNSLYLQVNSLRAEDTAVYYCARDIGDSDAFDIWGQGTMVTVSS
VL: B4 VL with A50G, Q55E, F83V, S93T
notes: Human IgG4 Fc (prefix H4H)
B7: H4H2151P (antibody, human IgG4, V domains shown)
VH: QVQLVESGGGVVQPGRSLRLSCAASGFTFSNYGMHWVRQAPGKGLEWVARIWYDGSNKYYADSVKGRFTISRDSSKNTLYLQMNSLRAEDTAVYYCAREGEQNLDYYPLDVWGQGTTVTVSS
VL: DIVMTQSPSSLSASVGDRVTITCRASQDIRNDLGWYQQKPGKAPKLLIYAASSLQTGVPSRFSGSVSGTDFTLTISSLQPEDFATYYCLQDYTYPLTFGGGTKVEIK
notes: Human IgG4 Fc (prefix H4H)
B8: H4H2153P (antibody, human IgG4, V domains shown)
VH: QVQLVQSGAEVKKPGASVKVSCKASGYTFTRYGISWVRQAPGLGLEWMGWISAYDGYTNFAQKFQGRFTMTTDTSTNTAYMELRGLRSDDTAVYYCAREEEDAAFDIWGQGTMVTVSS
VL: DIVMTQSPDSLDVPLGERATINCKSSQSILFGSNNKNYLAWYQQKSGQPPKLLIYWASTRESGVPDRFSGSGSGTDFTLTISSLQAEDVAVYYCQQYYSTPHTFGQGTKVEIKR
notes: Human IgG4 Fc (prefix H4H)
B9: H4H2148P (antibody, human IgG4, V domains shown)
VH: EVQLVESGGGLVHPGRSLRLSCAASGFTFDDYAMHWVRQSPGKGLEWVSGISWNSVIKHSTDSVRGRFTISRDNAKNSLYLQMNSLKPEDTAFYYCAKDEDDWNYLDYWGQGTLVTVSS
VL: DIQMTQSPSSVSASVGDRVTITCRASQDINSWLAWYQQKPGKAPKLLIYTSSNLQSGVPSRFSGSGSGTDFTLTISSLQPEDFATYYCQQSDSFPFTFGPGTKVDIKR
notes: Human IgG4 Fc (prefix H4H)

Molecular target: T1, ErbB3-mFc
Assay: blocking ELISA: antibody (0-50 nM) + 50 pM ErbB3-mFc, binding to coated neuregulin1b
From the text: To further characterize anti-hErbB3 mAbs of the present invention, their ability to block ligand binding was examined via ELISA. […] Plates were washed and non-sequestered (plate bound) ErbB3 was detected with an anti-Fc poly conjugated with horseradish peroxidase (HRP). Plates were developed with TMB (3,3′,5,5′-tetramethylbenzidine) and neutralized with sulfuric acid before reading absorbance at 450 nm on a Victor X5 plate reader. Data analysis used a sigmoidal dose-response model within Prism™ software. […] Maximal blocking for each antibody was calculated by taking the difference in absorbance from zero to 50 nM antibody on the inhibition curve, divided by the difference in absorbance from 50 pM to zero ErbB3 on the dose curve.

Row | IC50 [nM] | Maximal Blocking (%) | Binder
1 | 0.106 | 96 | B1
2 | 0.0957 | 94 | B2
3 | 0.177 | 83 | B3
4 | 0.0946 | 83 | B4
5 | 0.0835 | 92 | B5
6 | 0.0506 | 99 | B6
7 | 0.0751 | 85 | B7
8 | 0.074 | 82 | B8
9 | 0.0508 | 100 | B9
